In US5985836A, “Alpha-1 proteinase inhibitor binding peptides” (Bayer Corporation, priority 1998, dated 1999):
Ends that are not written are not given here.

Columns and labels:
A1PI [1] = target: T1, A1PI (Homo sapiens, UniProt P01009); assay: A1PI binding on peptide-resin column, injection of 1 mg A1PI in equilibration buffer; details: for % of Total A1PI Eluted by Fraction (Based on Absorbance at 280 nm), 1M NaCl / % of Total A1PI Eluted by Fraction (Based on Absorbance at 280 nm), 2% Acetic Acid / % of Total A1PI Eluted by Fraction (Based on Absorbance at 280 nm), Flowthrough: 1 mg A1PI; for Percent A1PI Eluted by Fraction Based on Absorbance at 280 nm, 1M NaCl / Percent A1PI Eluted by Fraction Based on Absorbance at 280 nm, 2% Acetic Acid / Percent A1PI Eluted by Fraction Based on Absorbance at 280 nm, Flowthrough / Percent A1PI Eluted by Fraction, 1M NaCl / Percent A1PI Eluted by Fraction, 2% Acetic Acid / Percent A1PI Eluted by Fraction, Flowthrough: 1 mg A1PI in equilibration buffer
T1 construct: Human plasma is currently the only approved source of therapeutic AlPI
T1 sequence (P01009 25-418): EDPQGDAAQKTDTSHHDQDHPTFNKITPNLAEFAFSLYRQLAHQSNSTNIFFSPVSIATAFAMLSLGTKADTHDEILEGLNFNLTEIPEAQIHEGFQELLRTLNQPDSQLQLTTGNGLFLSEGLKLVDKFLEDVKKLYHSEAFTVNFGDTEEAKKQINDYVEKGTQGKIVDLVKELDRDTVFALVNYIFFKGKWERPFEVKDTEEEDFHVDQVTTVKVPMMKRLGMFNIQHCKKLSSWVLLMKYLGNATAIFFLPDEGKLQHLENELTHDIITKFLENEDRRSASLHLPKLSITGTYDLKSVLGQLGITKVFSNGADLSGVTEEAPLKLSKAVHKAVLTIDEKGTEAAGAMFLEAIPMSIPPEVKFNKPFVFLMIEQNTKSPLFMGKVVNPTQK
Method: (§1) Confirmatory binding assays were performed in a column chromatographic format on a microbore HPLC using individual peptide sequences synthesized directly onto the Toyopearl 650 M Chelate resin which had been modified with Totda followed by an alanine residue (A-Totda-Toyopearl), at a final substitution density of 0.1 mmole/g resin. The resin was packed into 0.4×5 cm columns (Thomson, Springfield, Va.) and tested on the Michrom HPLC system (Michrom BioResources, Auburn, Calif.). The elution program for all trials utilized the following method. The column was pre-equilibrated with equilibration buffer (as above). 1 ml of sample was injected and allowed sufficient time to flowthrough the column using equilibration buffer. The column was then washed with step elutions of 1M NaCl and 3M NaCl in equilibration buffer. The column was exposed to equilibration buffer with 0.1M NaCl. Any remaining protein was eluted with elution buffer (2% by volume glacial acetic acid in water).
(§2) A Gilson FC204 fraction collector at the HPLC outlet collected individual eluates for further analysis. Fractions collected from the 2% acetic acid eluates were neutralized with 2M Tris, pH 10.5 to bring the pH to neutrality. The protein samples were reconstituted in equilibration buffer unless otherwise stated. The samples were analyzed by the integration of the absorbance at 280 nm or by immunonephelometry. The specific method of determination is presented for each figure.
Tables 2 and 3 present the elution profiles for 19 sequences based on the injection of 1 mg AlPI in equilibration buffer at 4° C. and 20° C., respectively. The columns were run at a constant flow rate of865 μl/min (413 cm/hr) or 523 μl/min (250 cm/hr). No dependence of the elution profile with flow rate was found. The Percent AlPI Eluted by Fraction represents the amount eluted in the flowthrough, 1M NaCl wash, and 2% acetic acid fractions relative to the total AlPI eluted. The percentages are based on either the integration of the peak areas at […]

A1PI [2] = target: T1, A1PI; assay: A1PI purification from 5 mg hSA + 1 mg A1PI on peptide column, A1PI mass balance; assay type: binding; details: A1PI, 5 mg hSA + 1 mg A1PI; for Percent Eluted by Fraction, 1M NaCl / Percent Eluted by Fraction, 2% Ac. Acid / Percent Eluted by Fraction, 3M NaCl / Percent Eluted by Fraction, Flow: relative to total eluted
Method: as §1, §2
Columns were assayed with a mixture of 5 mg human serum albumin (hSA)+1 mg AlPI at 4° C. (Table 4, Seq. ID 1-11, 15, 17) and 20° C. (Table 5, Seq. ID 1-10, 13, 15, 17). The chromatography method was modified to provide for a 10 minute residence time of sample in the column by decreasing the flow to 17 μl/min (10 cm/hr) upon injection. Following the incubation, the flow was set at 865 μl/min (413 cm/hr) for the step elutions of 1M NaCl, 3M NaCl, and 2% acetic acid. The mass balances presented are based upon immunonephelometry. The Percent Eluted value is protein-specific and based on the amount of the protein eluted in a […]

[3] = VIWLVR N-terminal point mutations, 4° C.
[4] = 20° C., * Below detection limit

Row | % of Total A1PI Eluted by Fraction (Based on Absorbance at 280 nm), 1M NaCl (A1PI [1]; [3]) [%] | % of Total A1PI Eluted by Fraction (Based on Absorbance at 280 nm), 2% Acetic Acid (A1PI [1]; [3]) [%] | % of Total A1PI Eluted by Fraction (Based on Absorbance at 280 nm), Flowthrough (A1PI [1]; [3]) [%] | Percent A1PI Eluted by Fraction Based on Absorbance at 280 nm, 1M NaCl (A1PI [1]; 4° C.) [%] | Percent A1PI Eluted by Fraction Based on Absorbance at 280 nm, 2% Acetic Acid (A1PI [1]; 4° C.) [%] | Percent A1PI Eluted by Fraction Based on Absorbance at 280 nm, Flowthrough (A1PI [1]; 4° C.) [%] | Percent A1PI Eluted by Fraction, 1M NaCl (A1PI [1]; 20° C.) [%] | Percent A1PI Eluted by Fraction, 2% Acetic Acid (A1PI [1]; 20° C.) [%] | Percent A1PI Eluted by Fraction, Flowthrough (A1PI [1]; 20° C.) [%] | Substance | further results
1 | – | – | – | – | – | – | – | – | – | VIFLVA: point mutation of VIFLVR, position 6, C-terminal Arg replaced with Ala | binding of AlPI (in words) (A1PI [1]): little binding of AlPI; % of Total A1PI Eluted by Fraction (Based on Absorbance at 280 nm), 1M NaCl (A1PI [1]; VIFLVR point mutations, 4° C.): 2%; % of Total A1PI Eluted by Fraction (Based on Absorbance at 280 nm), 2% Acetic Acid (A1PI [1]; VIFLVR point mutations, 4° C.): 21%; % of Total A1PI Eluted by Fraction (Based on Absorbance at 280 nm), Flowthrough (A1PI [1]; VIFLVR point mutations, 4° C.): 77%; % of Total A1PI Eluted by Fraction (Based on Absorbance at 280 nm), 1M NaCl (A1PI [1]; VIFLVR point mutations, 20° C.): 0%; % of Total A1PI Eluted by Fraction (Based on Absorbance at 280 nm), 2% Acetic Acid (A1PI [1]; VIFLVR point mutations, 20° C.): 8%; % of Total A1PI Eluted by Fraction (Based on Absorbance at 280 nm), Flowthrough (A1PI [1]; VIFLVR point mutations, 20° C.): 92%
2 | 95 | 5 | 0 | – | – | – | – | – | – | SNWLVR: point mutation of VIWLVR on Ala-Totda-Toyopearl (not fully specified (C-terminus)) | –
3 | – | – | – | 92 | 8 | 0 | 82 | 18 | 0 | RRKYLW | –
4 | 83 | 17 | 0 | – | – | – | – | – | – | NHWLVR: point mutation of VIWLVR on Ala-Totda-Toyopearl (not fully specified (C-terminus)) | –
5 | – | – | – | 100 | 0 | 0 | 95 | 5 | 0 | IKRYYN | –
6 | – | – | – | 95 | 5 | 0 | 93 | 7 | 0 | NWKRVR | –
7 | 0 | 1 | 99 | – | – | – | – | – | – | DDWLVR: point mutation of VIWLVR on Ala-Totda-Toyopearl (not fully specified (C-terminus)) | –
8 | – | – | – | 94 | 6 | 0 | 81 | 19 | 0 | IWRKYS | Mass Protein per Eluate Fraction, 1M NaCl (A1PI [2]; 4° C., * Below detection limit): 0.68 mg; Mass Protein per Eluate Fraction, Flow (A1PI [2]; 4° C., * Below detection limit): 0.03 mg; Percent Eluted by Fraction, 1M NaCl (A1PI [2]; 4° C.): 96%; Percent Eluted by Fraction, 2% Ac. Acid (A1PI [2]; 4° C.): 0%; Percent Eluted by Fraction, 3M NaCl (A1PI [2]; 4° C.): 0%; Percent Eluted by Fraction, Flow (A1PI [2]; 4° C.): 4%; Mass Protein per Eluate Fraction, 1M NaCl (A1PI [2]; [4]): 0.58 mg; Mass Protein per Eluate Fraction, 2% Ac. Acid (A1PI [2]; [4]): 0.11 mg; Mass Protein per Eluate Fraction, 3M NaCl (A1PI [2]; [4]): 0.00 mg; Percent Eluted by Fraction, 1M NaCl (A1PI [2]; 20° C.): 83%; Percent Eluted by Fraction, 2% Ac. Acid (A1PI [2]; 20° C.): 17%; Percent Eluted by Fraction, 3M NaCl (A1PI [2]; 20° C.): 0%; Percent Eluted by Fraction, Flow (A1PI [2]; 20° C.): 0%
